Experimental data reported in patent CN109810193A (SHENZHEN INST ADV TECH, dated 2019).

Key:
sDR5-Fc蛋白 = target: T1, sDR5-Fc蛋白 (UniProt O14763 56-182, limits assumed); experiment: BLI (OCTET K2), sDR5-Fc 10 ug/ml captured on AHC sensors, 6C93D6 at 76-4.75 nM in solution
T1 construct: Immunogen and BLI ligand; not shown: it was captured on AHC (Anti-hIgG Fc Capture) sensors

jurkat细胞表面的DR5蛋白 = jurkat细胞表面的DR5蛋白 (UniProt O14763 56-440, limits assumed); experiment: cell-based or functional assay
人DR4抗原 = target: T2, 人DR4抗原 (human, UniProt O00220 24-239, limits assumed); experiment: ELISA, DR4 coated, goat anti-mouse IgG-HRP, OD450
T2 construct: also called death receptor 4
T2 sequence (looked up): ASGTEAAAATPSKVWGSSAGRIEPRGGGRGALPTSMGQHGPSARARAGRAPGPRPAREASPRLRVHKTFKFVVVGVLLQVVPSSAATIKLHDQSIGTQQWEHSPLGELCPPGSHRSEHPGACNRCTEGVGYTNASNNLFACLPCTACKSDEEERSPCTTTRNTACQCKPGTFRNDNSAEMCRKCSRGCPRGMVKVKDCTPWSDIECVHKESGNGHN

sDR5-Fc-biotin = sDR5-Fc-biotin (UniProt O14763); experiment: competition ELISA: sDR5-Fc-biotin 7.5 ug/ml preincubated with 6C93D6 30 ug/ml, added to coated human TRAIL (5 ug/ml); Streptavidin-HRP; the OD is the remaining binding of the complex to TRAIL

B1: 6C93D6抗体 (抗DR5的单克隆抗体) (antibody, V domains shown)
VH: EVQLQQSGPDLVKPGASVKISCKASGYSFTGHYMHWVKQSHGQSLEWIGRVNPNNGGTGYNQKFKDKAILTVDKPSSTAYMELRSLTSEDSAVYYCARNGAYYRSDGNYFDYWGQGTTLTVSS
VL: DIVLTQSTPSLAVSLGQRATISCRASESVDSYGNSFMHWFQQKPGQPPKLLIYRASNLESGIPARFSGSGSRTDFTLTINPVEADDVATYYCQQSNEDPYTFGGGTKLEIK
notes: Mouse hybridoma monoclonal antibody purified from ascites on Protein G
Kd (sDR5-Fc蛋白): 6.77 nM | 诱导HepaRG细胞凋亡的EC50 (1ug/ml交联剂 anti-mouse IgG Fc antibody; MTS/PMS, A490-A630) (jurkat细胞表面的DR5蛋白): 68.5 pg/mL | 诱导HepaRG细胞凋亡的EC50 (无交联剂; MTS/PMS, A490-A630) (jurkat细胞表面的DR5蛋白): 1.1 µg/mL | binding result (人DR4抗原): no binding | OD450 (sDR5-Fc-biotin): 0.105
